Laboratory results: article PMC2147998

Biological target: UNG2 S23D/T60D/S64D (human) (UniProt P13051)
Test: co-IP

UniProt P13051, sequence (P13051 whole entry S23D/T60D/S64D): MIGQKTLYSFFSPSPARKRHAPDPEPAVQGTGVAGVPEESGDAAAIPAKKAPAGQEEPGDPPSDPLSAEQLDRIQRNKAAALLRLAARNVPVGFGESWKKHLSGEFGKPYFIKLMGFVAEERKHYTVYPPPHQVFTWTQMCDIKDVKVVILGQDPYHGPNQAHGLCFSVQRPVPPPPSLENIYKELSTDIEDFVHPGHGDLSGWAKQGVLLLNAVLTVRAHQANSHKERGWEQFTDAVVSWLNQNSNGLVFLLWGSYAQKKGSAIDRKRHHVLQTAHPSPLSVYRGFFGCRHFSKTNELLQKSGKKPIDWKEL

replication protein A (RPA) (from UniProt P15927 1-270) (complex)
RPA-binding capacity relative to WT UNG2: 40%
